Assay results taken from US7943356B2, “Alcohol dehydrogenase for the stereoselective production of hydroxy compounds” (Codexis, Inc., priority 2004, dated 2011).
Where two headings read alike, the source gives them in different places.

Legend:
ADH T = test: Relative activities of purified ADH T in the reduction of different substrates; format: biochemical, Thermoanaerobacter species
[1] = Storage stability of the isolated ADH T (residual activity); format: physicochemical; conditions: for Activity Day 5 / Activity Day 10 / Activity Day 20 / Activity Day 40 / Activity Start: storage at 4° C.
Experimental: In spite of its thermal stability, the isolated ADH T cannot be stored for long under standard conditions (50 mM Tris-Cl, pH 7.0). The half-life is only ca. 4 days. By addition of e.g. NaCl, the half-life can be increased to more than 40 days (Table 2).
(§1) The activities were determined by photometric measurement of the decrease in the cofactor. Measurement batch: 50 mM Tris-Cl, pH 7.0 with 10 mM substrate and 0.2 mM NADPH. The measurement batch for ADH-TE also contained 1 mM of MgCl2.
(§2) The decrease in NADPH was followed at 340 nm for one minute after addition of the enzyme. Sufficient enzyme was added for the activity to be between 0.5 and 1.5 U/ml and the measurement volume was 1 ml.
(§3) 1 U corresponds to the quantity of enzyme which converts 1 μmol of substrate per minute.

[2] = Thermal stability of ADH T; format: physicochemical; conditions: after 12 hrs at 50° C.
Experimental: The thermal stability is also very good. The activity of the ADH T was still at 75% of the starting value even after 12 hrs at 50° C.

[3] = Activity with diketone 2,4-pentanedione (photometric NADPH decrease); format: biochemical
Experimental: (§4) The comparison of the activity of the ADH T with that of the secondary alcohol dehydrogenase from Thermoanaerobacter ethanolicus 39E (U.S. Pat. No. 5,908,924) with regard to the conversion of diketones is interesting (Table 6).
as §1, §2, §3

[4] = Activity of the isolated ADH T at different pH values; format: biochemical
Experimental: The activities were determined by photometric measurement of the decrease in the cofactor. […] The measurement batch for ADH-TE also contained 1 mM of MgCl2.
as §2, §3

[5] = Activity with diketone 2,5-hexanedione (photometric NADPH decrease); format: biochemical
Experimental: as §4, §1, §2, §3

[6] = Reduction of 2,5-hexanedione to the diol, conversion and ee/de; format: biochemical; conditions: after 48 hrs
Text: The ee/de value of 100% signifies absolute enantiomeric and diastereomeric purity of the diols prepared. By means of the invention described here, the ADH T can for the first time be obtained in sufficient quantity to produce enantiomerically pure diols on the kilogram scale.

[7] = Activity with standard substrate acetone (photometric NADPH decrease); format: biochemical; conditions: acetone (10 mM); ADH T 1.5 mg/ml, ADH-TE 2.45 mg/ml; ADH-TE batch also 1 mM MgCl2
Experimental: as §4, §1, §2, §3

[8] = Conversion of 2-pentanone with substrate-coupled cofactor regeneration (isopropanol); format: biochemical; conditions: 200 mM 2-pentanone, 3 U/ml ADH T, 0.05 mM NADP
Text: In fact, it can be shown that the enantioselectivity in the reduction of critical ketones such as 2-pentanone or 2-butanone by substrate-coupled cofactor regeneration with isopropanol is also far better than with the use of enzyme-coupled cofactor regeneration.
Also, the achievable enantiomeric purity of the product depends on the quantity of isopropanol used (Table 9).

[9] = substrate 10 mM, activity with acetone set at 100%, purified ADH T
[10] = substrate 10 mM, activity with acetone set at 100%, […]
[11] = relative to standard substrate acetone (10 mM)

Molecule: O=C1CCCCC1=O [1,2-cyclohexanedione]
- Relative activity (ADH T; [9]): 5%

Molecule: CCC(C)=O [2-butanone]
- Relative activity (ADH T; [10]): 72%

Molecule: CCCCCCC(C)=O [2-octanone]
- Relative activity (ADH T; [9]): 9%

Molecule: O=C(CCl)c1ccccc1 [Phenacyl chloride]
- Relative activity (ADH T; [10]): 25%

Molecule: CC(=O)c1ccc(Cl)cc1 [p-chloroacetophenone]
- Relative activity (ADH T; [10]): 17%

Molecule: CC(=O)c1ccccn1 [2-acetylpyridine]
- Relative activity (ADH T; [9]): 36%

Molecule: Monochloroacetone
- Relative activity (ADH T): 71%

Molecule: CC=O [Acetaldehyde]
- Relative activity (ADH T; [10]): 101%

Molecule: CC(=O)CCO [4-hydroxy-2-butanone]
- Relative activity (ADH T; [10]): 13%

Molecule: CCC(C)C=O (stereo not shown) [2-methylbutyraldehyde]
- Relative activity (ADH T; [9]): 52%

Molecule: CC(=O)CCC(C)=O [2,5-hexanedione]
- Relative activity (ADH T; [9]): 74%

Molecule: CC(=O)c1ccccc1 [Acetophenone]
- Relative activity (ADH T; [9]): 28%

Molecule: CC(=O)CC(C)=O [2,4-pentanedione]
- Relative activity (ADH T; [9]): 77%

Molecule: CCCC(C)=O [2-pentanone]
- Relative activity (ADH T; [9]): 31%

Molecule: CC(C)=O [Acetone]
- Relative activity (ADH T; [10]): 100%

Molecule: CCCCCC(=O)CC [3-octanone]
- Relative activity (ADH T; [9]): 26%

Molecule: C#CC(C)=O [3-butyn-2-one]
- Relative activity (ADH T; [10]): 76%

Molecule: CC(=O)C(C)=O [Diacetyl]
- Relative activity (ADH T; [9]): 154%

Molecule: CC(=O)CCCl [4-chloro-2-butanone]
- Relative activity (ADH T; [10]): 66%

Molecule: CCCCC(C)=O [2-hexanone]
- Relative activity (ADH T; [10]): 30%

Molecule: CCOC(=O)CC(C)=O [Ethyl acetoacetate]
- Relative activity (ADH T; [9]): 22%

Molecule: CCOC(=O)CC(=O)CCl [Ethyl 4-chloroacetoacetate]
- Relative activity (ADH T; [10]): 45%

Molecule: CCC(=O)C(=O)O [2-oxobutyric acid]
- Relative activity (ADH T; [9]): 28%

B1: ADH T: thermally stable, (S)-selective NADP-dependent alcohol dehydrogenase from Thermoanaerobacter species (SEQ ID NO: 2), recombinant (protein)
chain: MKGFAMLSIGKVGWIEVEKPNPGPFDAIVRPLAVAPCSSDIHTVFEGGLGELHNAVLGHEAVGEVVEVGSEVKDFKPGDKVVIPAITPDWRTLDVQRGYHQQSGGMLAGYKFTAQKPGVFAEYIYVNDADMNLAHLPDGISLEAAVMITDMMTTGFHGAELAEIELGATVAVLGIGPVGLMAVAGAKLRGAGRIIAVGSRPVCVDAAKYYGATDIVNYKNGPIDSQIMDLTKGKGVDAAIIAGGNVDIMATAVKIVKPGGTIANVNYFGEGDVLPVPRLEWGCGMAHKAIKGGLCPGGRLRMERLIDLVFYKRVDPSKLVTHVFQGFDNIEKALMLMKDKPKDLIKPVVILA
modifications: Thermoanaerobacter species
- Activity Day 5 ([1]; 0.0 M NaCl): 24 U/ml
- Activity Day 10 ([1]; 0.0 M NaCl): 6 U/ml
- Activity Day 20 ([1]; 0.0 M NaCl): 0 U/ml
- Activity Day 40 ([1]; 0.0 M NaCl): 0 U/ml
- Activity Start ([1]; 0.0 M NaCl): 105 U/ml
- Activity Day 5 ([1]; 0.2 M NaCl): 101 U/ml
- Activity Day 10 ([1]; 0.2 M NaCl): 7 U/ml
- Activity Day 20 ([1]; 0.2 M NaCl): 0 U/ml
- Activity Day 40 ([1]; 0.2 M NaCl): 0 U/ml
- Activity Start ([1]; 0.2 M NaCl): 105 U/ml
- Activity Day 5 ([1]; 0.5 M NaCl): 113 U/ml
- Activity Day 10 ([1]; 0.5 M NaCl): 86 U/ml
- Activity Day 20 ([1]; 0.5 M NaCl): 0 U/ml
- Activity Day 40 ([1]; 0.5 M NaCl): 0 U/ml
- Activity Start ([1]; 0.5 M NaCl): 105 U/ml
- Activity Day 5 ([1]; 1.0 M NaCl): 115 U/ml
- Activity Day 10 ([1]; 1.0 M NaCl): 119 U/ml
- Activity Day 40 ([1]; 1.0 M NaCl): 78 U/ml
- Activity Start ([1]; 1.0 M NaCl): 105 U/ml
- duration of high stability on storage ([1]; storage at −20° C. with addition of glycerine, in particular 50%): at least 3 months
- effect of addition of zinc ions to the prepared enzyme ([1]; zinc ions added to prepared enzyme): leads rapidly to its inactivation
- activity remaining, of the starting value [2]: 75%
- spec. activity [3]: 55.4 U/mg
- rel. activity [3, 11]: 77%
- pH optimum [4]: 7.0
- Measured activity ([4]; pH 5.0): 53 U/ml
- Measured activity ([4]; pH 6.0): 134 U/ml
- Relative activity ([4]; pH 6.5): 66%
- Measured activity ([4]; pH 7.0): 192 U/ml
- Relative activity ([4]; pH 7.0): 100%
- Relative activity ([4]; pH 7.5): 74%
- Measured activity ([4]; pH 8.0): 146 U/ml
- Measured activity ([4]; pH 9.0): 13 U/ml
- spec. activity [5]: 52.7 U/mg
- rel. activity [5, 11]: 74%
- Conversion to diol ([6]; enzyme-coupled): 82.4%
- ee/de for the (S,S) enantiomer ([6]; enzyme-coupled): 100%
- Conversion to diol ([6]; substrate-coupled): 10.6%
- ee/de for the (S,S) enantiomer ([6]; substrate-coupled): 100%
- activity with standard substrate [7]: 106 U/ml
- Conversion ([8]; 100 mM Tris-Cl pH 7.0, 20% isopropanol, 24 hours): 85.3%
- Conversion ([8]; 100 mM Tris-Cl pH 7.0, 20% isopropanol, 48 hours): 86.5%
- Conversion ([8]; 100 mM Tris-Cl pH 7.0, 50% isopropanol, 24 hours): 93.8%
- Conversion ([8]; 100 mM Tris-Cl pH 7.0, 50% isopropanol, 48 hours): 94.2%
